Reference: the supplement of paper PMC10567573

B1: DCAF4 (parent)
chain: PGIDRPGMLCSFRIPGAWSCAWSL
B2: NCF4 (parent)
chain: FVKILKDFPEEDDPTNWLRCYYYE

Variants of: B1
Assay: protein stability index of a GFP-peptide fusion (GPS, HEK-293T) (PSI 1-6); higher = more stable
Conditions: c terminus: a fixed tail appended
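Further: lentivirally expressed fusions sorted by FACS into six bins by GFP to DsRed ratio, PSI derived from sequencing read proportions per bin multiplied by bin number.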

Protein stability index of substitutions, site by site:
G7: V 2.84
G2: S 2.55
D4: T 2.56, C 2.61
I14: Y 2.14, D 2.83
I3: L 3.31
L9: N 2.9
R5: M 3.37, A 2.47, E 3.11
G16: L 3.68, W 1.49
C10: Y 3.23, D 2.17
R13: T 3.39
S23: N 2.36
P15: E 3.99, K 3.5, Y 3.12
S11: P 3.14

Variants of: B2
Assay: as above
Conditions: c terminus: a fixed tail appended

Protein stability index: each site, then its substitutions
P14: K 1.9, A 2.72, V 1.84, D 2.76, F 1.24, Y 1.3, E 3.08, Q 1.47, I 1.15, H 3.08, S 2.5, M 1.72, W 2.21, T 1.11
N16: K 1.81, Y 2.46, W 1.58, M 2.61, E 2.71, G 1.61, L 1.64, I 1.75, F 2.41, D 1.7, R 1.47, H 5.27, T 2.25, P 2.55, A 1.61
E24: K 1.99, S 1.98, A 2.33, R 1.51, F 2.3, Q 2.5, W 1.6, M 2.05, C 3.79, N 1.5, H 2.4, D 1.39, I 2.39, P 2.12, T 1.23, G 1.54
L5: Y 2.23, T 2.17, W 1.06, H 3.08, N 1.68, D 2.1, E 1.96, I 1.6, A 1.02, R 2.09, F 1.86
C20: N 2.74, H 1.84, L 1.69, V 1.72, M 2.02, Y 1.9, G 2.06, S 1.96, T 2.38, A 1.58, R 2.12, E 2.12
T15: Y 1.84, R 3.22, I 1.44, P 2.88, D 1.79, Q 2.02, S 2.14, G 1.66, C 1.88, E 2.85, W 1.41, A 2.18, H 1.3, V 1.9, L 2.27
D13: Q 2.12, W 3.15, T 2.72, G 1.04, V 1.53, Y 2.81, C 1.96, P 1.4, E 2.69, I 1.29, M 3.83, F 3.57, R 1.66, S 2.46, H 2.54
L18: P 2.42, S 2.15, E 2.13, C 1.58, K 1.55, Q 1.73, T 2.24, V 2.34, A 2.1, D 1.94, G 1.92, Y 1.96, H 1.66, R 1.9
P9: C 1.26, W 1.27, D 1.85, E 1.74, K 1.37, T 1.73, R 1.6, N 2.15, I 1.65, A 2.67, V 2.21, F 1.1, M 2.75
K6: L 1.96, I 1.37, Q 1.97, E 2.5, N 3.4, R 1.17, P 1.56, T 1.95, V 3.01, F 2.93
E11: M 1.01, Q 2.98, A 1.68, Y 1.96, L 2.74, K 1.39, H 3.15, R 1.75, T 2.96, S 1.71, F 3.95, W 2.04, I 2.4
D7: Q 1.07, L 2.16, C 4.49, W 1.07, H 1.77, V 2.69
V2: T 2.4, M 1.96, W 3.35, G 2.24, S 1.62, R 2.38, L 1.76, Q 3.03, P 2.82, D 2.05, H 1.57, E 3.02, N 2.11
E10: I 3.14, T 2.6, R 1.7, V 1.62, Q 2.48, S 1.77, A 1.47, D 1.16, M 2.93
K3: Y 1.01, R 1.17, N 2.31, P 2.45, A 2.19, C 1.26, S 2.32, D 2.11, E 2, Q 2.05, H 1.43
F1: C 1.46, A 1.99, H 2.7, V 2.21, P 2.05, N 2.96, R 2.25, I 2.09, K 2.68, Q 2.56, L 2.17, T 2.6, S 2.55
Y21: D 2.02, I 2.44, V 2.53, A 1.1, H 2.55, N 3.57, E 1.41, C 1.61, S 1.8, F 1.91, G 1.06, K 2.47, M 1.75, L 2.62
F8: R 1.69, H 3.3, V 2.59, P 1.68, I 1.25, Y 4.09, M 3.67, Q 1.67, K 1.8, G 1.18, L 1.15, E 1.14, C 1.25
Y23: L 1.39, R 1.96, D 1.57, K 1.73, N 1.51, A 1.75, P 3.56, Q 1.73, G 1.96, V 1.3, E 2.52, I 1.5, C 1.49, F 2.27, T 1.57, S 1.83
I4: G 1.9, W 3.72, E 1.65, Q 2.15, P 2.15, T 1.54, M 2.39, A 1.61, F 3.08, D 1.25, N 2.76, L 2.02, S 2.7
Y22: C 1.92, N 1.56, E 2.1, A 3.02, S 1.38, F 1.65, Q 3.25, T 2.94, K 1.61, L 2.24, I 1.75, M 2.33, D 2.29, W 2.28, P 1.41, H 1.82, R 2.46, V 1.03, G 2.64
R19: E 1.56, D 2.32, K 4.32, I 1.84, N 2.83, T 2.28, W 1.78, G 1.09, Q 1.42, S 1.79, A 2.27, M 2.31, C 1.01, Y 3.01
W17: M 1.85, N 3.07, S 1.52, K 1.93, T 1.85, L 1.74, V 1.31, R 1.52, C 2.55, G 1.79, Y 2.4, Q 1.89, F 1.59, E 1.91
D12: S 2.4, Q 2.75, P 1.03, C 2.14, M 2.39, Y 2.35, T 1.37, K 1.41, G 2.33, E 2.04
